{"source": "patent US20150376296A1", "about": "(Memorial Sloan Kettering, published 2015)", "binders": {"B1": {"name": "2B4 iCAR-P (PSMA-specific inhibitory chimeric antigen receptor with 2B4 intracellular domain) (receptor)", "chain": "EVQLQQSGPELVKPGTSVRISCKTSGYTFTEYTIHWVKQSHGKSLEWIGNINPNNGGTTYNQKFEDKATLTVDKSSSTAYMELRSLTSEDSAVYYCAAGWNFDYWGQGTTVTVSSGGGGSGGGGSGGGGSDIVMTQSHKFMSTSVGDRVSIICKASQDVGTAVDWYQQKPGQSPKLLIYWASTRHTGVPDRFTGSGSGTDFTLTITNVQSEDLADYFCQQYNSYPLTFGAGTMLDLKRAAAQDCQNAHQEFRFWPFLVIIVILSALFLGTLACFCVWRRKRKEKQSETSPKEFLTIYEDVKDLKTRRNHEQEQTFPGGGSTIYSMIQSQSSAPTSQEPAYTLYSLIQPSRKSGSRKRNHSPSFNSTIYEVIGKSQPKAQNPARLSRKELENFDVYS"}, "B2": {"name": "BTLA iCAR-P (PSMA-specific inhibitory chimeric antigen receptor with BTLA intracellular domain) (receptor)", "chain": "EVQLQQSGPELVKPGTSVRISCKTSGYTFTEYTIHWVKQSHGKSLEWIGNINPNNGGTTYNQKFEDKATLTVDKSSSTAYMELRSLTSEDSAVYYCAAGWNFDYWGQGTTVTVSSGGGGSGGGGSGGGGSDIVMTQSHKFMSTSVGDRVSIICKASQDVGTAVDWYQQKPGQSPKLLIYWASTRHTGVPDRFTGSGSGTDFTLTITNVQSEDLADYFCQQYNSYPLTFGAGTMLDLKRAAADVKSASERPSKDEMASRPWLLYSLLPLGGLPLLITTCFCLFCCLRRHQGKQNELSDTAGREINLVDAHLKSEQTEASTRQNSQVLLSETGIYDNDPDLCFRMQEGSEVYSNPCLEENKPGIVYASLNHSVIGPNSRLARNVKEAPTEYASICVRS"}, "B3": {"name": "LAG-3 iCAR-P (PSMA-specific inhibitory chimeric antigen receptor with LAG-3 intracellular domain) (receptor)", "chain": "EVQLQQSGPELVKPGTSVRISCKTSGYTFTEYTIHWVKQSHGKSLEWIGNINPNNGGTTYNQKFEDKATLTVDKSSSTAYMELRSLTSEDSAVYYCAAGWNFDYWGQGTTVTVSSGGGGSGGGGSGGGGSDIVMTQSHKFMSTSVGDRVSIICKASQDVGTAVDWYQQKPGQSPKLLIYWASTRHTGVPDRFTGSGSGTDFTLTITNVQSEDLADYFCQQYNSYPLTFGAGTMLDLKRAAALGAAVYFTELSSPGAQRSGRAPGALPAGHLLLFLILGVLSLLLLVTGAFGFHLWRRQWRPRRFSALEQGIHPPQAQSKIEELEQEPEPEPEPEPEPEPEPEPEQL"}}}
{"target": "human prostate-specific membrane antigen (PSMA) (human, UniProt Q04609 1-750)", "sequence (Q04609 whole entry)": "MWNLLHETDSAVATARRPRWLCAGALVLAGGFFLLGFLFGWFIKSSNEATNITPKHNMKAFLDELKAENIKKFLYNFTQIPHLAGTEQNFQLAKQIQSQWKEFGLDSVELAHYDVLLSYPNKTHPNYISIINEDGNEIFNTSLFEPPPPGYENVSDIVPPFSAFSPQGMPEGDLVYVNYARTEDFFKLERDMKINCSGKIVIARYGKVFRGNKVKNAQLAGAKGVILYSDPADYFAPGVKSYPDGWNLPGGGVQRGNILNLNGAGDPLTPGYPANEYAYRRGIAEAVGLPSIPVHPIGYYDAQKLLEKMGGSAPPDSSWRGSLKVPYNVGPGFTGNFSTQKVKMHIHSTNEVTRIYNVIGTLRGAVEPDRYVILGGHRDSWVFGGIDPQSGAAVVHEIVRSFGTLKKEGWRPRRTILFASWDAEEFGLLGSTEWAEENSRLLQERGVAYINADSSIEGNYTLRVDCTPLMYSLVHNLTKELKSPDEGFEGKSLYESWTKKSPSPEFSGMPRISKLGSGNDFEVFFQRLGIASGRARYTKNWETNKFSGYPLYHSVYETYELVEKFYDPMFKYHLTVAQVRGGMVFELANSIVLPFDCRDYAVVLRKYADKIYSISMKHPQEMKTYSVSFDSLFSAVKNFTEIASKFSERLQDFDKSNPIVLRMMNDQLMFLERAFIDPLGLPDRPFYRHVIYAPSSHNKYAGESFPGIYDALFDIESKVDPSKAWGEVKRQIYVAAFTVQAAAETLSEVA", "assay": "cell-based or functional assay", "units": {"cytokine levels of 19-28z/iCAR T cells on CD19+PSMA+ off-target versus CD19+ target AAPCs, inhibition": "%"}}
{"binder": "B1", "cytokine levels of 19-28z/iCAR T cells on CD19+PSMA+ off-target versus CD19+ target AAPCs, inhibition": 30}
{"binder": "B2", "cytokine levels of 19-28z/iCAR T cells on CD19+PSMA+ off-target versus CD19+ target AAPCs, inhibition": 30}
{"binder": "B3", "cytokine levels of 19-28z/iCAR T cells on CD19+PSMA+ off-target versus CD19+ target AAPCs, inhibition": 30}
